83 variants from the RNAGym collection of RNA variant scans (doi:10.1073/pnas.2313332121) can be followed below.

The labels stand for the following.
B1: TPR t1 (parent)
chain: GACCAAUCUGCCCUCAGAGCUCGAGAACAUCUUCGGAUGCAGAGGAGGCAGGCUUCGGUGGCGCGAUAGCGCCAACGUCCUCAACCUCCAAUGCAUCCCACCACAUGAUGAUGCCUGAAGAGCCUUGGUUUUUUG

In this data set the parent is B1. Kind of data set: polymerase ribozyme fitness, log enrichment relative to wild type (log ratio); higher = more active; in vitro selection for triplet polymerase activity. Summed up:
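In triplicate, a single round of in vitro selection was run on each mutant library, PCR-built and transcribed, covering one subunit of a heterodimeric triplet polymerase ribozyme. Frozen incubation at −7 °C followed annealing with a biotinylated primer, partner subunit and triplets, and extended constructs were then gel-excised, streptavidin-captured and taken through RT-PCR. Fitness is the logarithm of genotype enrichment over wild-type enrichment, from inverse-variance-weighted replicate averages of Illumina-sequenced inputs and outputs. […] only genotypes with ≥10 input reads and ≥1 read per output were kept.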
Turning to C53U C70U A74G G113C U133A, the “polymerase ribozyme fitness (log ratio)” value is -2.94. Next, C53A C97A: -4.2; C53A G60U U106A U109G G113U: -5.78; C53A C94A U112C: 1.14.

As to C53A G57U G93C C97U, the “polymerase ribozyme fitness (log ratio)” value was -0.989. Next, C53A C72U C85U G122A: -0.784. Next, C53U C62U A95C: -1.08; C53G C64U: -0.328; C53A C98A: -5.56. Next, C53A C98U: -0.601; C53A C79U C86U: -0.479; C53A G57A G93C: -0.961.

For the variant C53G G63U G122A, the “polymerase ribozyme fitness (log ratio)” value is -1.7. Consider C53G U87G C99G C101U G107U G113A, for which the “polymerase ribozyme fitness (log ratio)” value was -7.29. With C53A G60A A105C the figure was -2.91; with C53G U81C U106A, -4.71.

In the case of C53G C56U G117A, the “polymerase ribozyme fitness (log ratio)” value was -1.63. With C53A C79A C104A U106A U132C the figure was -3.18; with C53G C79U, -1.64. Next, C53A C115U: -0.961; C53A G128A: -1.61; C53G U78C U81A C101A G120C A121C: -2.66. Next, C53A G60A U78C: 0.136; C53A U81C U109A G110U U126G: -5.92. On to C53A G61C, for which the “polymerase ribozyme fitness (log ratio)” value is -4.19.

In the case of C53A C98U U112G, the “polymerase ribozyme fitness (log ratio)” value is -3.36.

As for C53G A74G G117A, the “polymerase ribozyme fitness (log ratio)” value was -1.73. With C53G G63C G127C the figure was -1.19; with C53U A118U G120C U133G, 0.183; with C53A U78G C80U C123G, 0.434. C53G A91U: the “polymerase ribozyme fitness (log ratio)” value is -1.68. Next, C53G U54G G63C: -3.77; C53U A74U U81C G120A: -1.15. Next, C53G U112G C114A G135U: -5.63; C53G C94A U132A: -1.31; C53G C56G C73A A84C: -2.01. Next, C53A C89U C115A: -0.188. C53A C124G: the “polymerase ribozyme fitness (log ratio)” value was 0.737. With C53G G113U the figure was -2.22. Next, C53G U87G: -0.632. Next, C53G G63C G93C: -0.994; C53G C80U G128C: -2.66. As to C53G C70G U81C C94G A121C, the “polymerase ribozyme fitness (log ratio)” value was -7.53. C53G U112G G113C: the “polymerase ribozyme fitness (log ratio)” value was -5.93. Next, C53G G61A: -1.75.

On to C53A G63U C114U, for which the “polymerase ribozyme fitness (log ratio)” value was -5.9. Next, C53G G77U C86A: -1.02.

On to C53G A74G, for which the “polymerase ribozyme fitness (log ratio)” value is -1.52.

For C53A C72A, the “polymerase ribozyme fitness (log ratio)” value was -1.56. With C53A C72U the figure was -0.465.

C53A U55A G63A G71U G120C: the “polymerase ribozyme fitness (log ratio)” value is -4.29. Next, C53A C82G A118G: -0.931; C53A U59C A121G: 1.49; C53G U112C: 0.934. Next, C53G G57A G71A C94G C114A: -5.83. Next, C53A U55A C82U: -0.263; C53G C79U G122A: -3.43. Consider C53G C64U A118G C123U, for which the “polymerase ribozyme fitness (log ratio)” value is -1.6. With C53G U116A the figure was -2.67. Next, C53A U132A: -0.786; C53U C62U U125A G128A U130A: -3.39; C53G C86A A119G G120U: -0.713.

As for C53U A111G, the “polymerase ribozyme fitness (log ratio)” value is 0.578. With C53A C76U U87C the figure was -0.534.

With C53U A91C G120C U133C G135U, the “polymerase ribozyme fitness (log ratio)” value was -0.968.

Take C53G C70U U78C U106G: the “polymerase ribozyme fitness (log ratio)” value is -3.34.

For C53A C73A U116A, the “polymerase ribozyme fitness (log ratio)” value is -3.87. On to C53G G69A C115A U116A, for which the “polymerase ribozyme fitness (log ratio)” value is -5.69. With C53A G61U C72U U87C G127A the figure was -1.15; with C53G G71A G93C, -1.51; with C53U A90C C104A A121G C123A, -2.12. With C53U A90C U96G A118U the figure was -1.37; with C53G C76G A100U, -0.651. For the variant C53A C80U U106A, the “polymerase ribozyme fitness (log ratio)” value was -5.29.

For the variant C53G G69A U78C C97U, the “polymerase ribozyme fitness (log ratio)” value was -2.9.

In the case of C53A G120U G127A, the “polymerase ribozyme fitness (log ratio)” value is -0.445. Take C53G C97A A119U C123U: the “polymerase ribozyme fitness (log ratio)” value was -4.34.

For C53G G63A A111C A119G, the “polymerase ribozyme fitness (log ratio)” value was -1.67.

Take C53G C72A U81A G120C C123G: the “polymerase ribozyme fitness (log ratio)” value is -1.65. As to C53U C62A G93C C104U, the “polymerase ribozyme fitness (log ratio)” value was -1.76. With C53A C104A the figure was -1.8. With C53A G71U the figure was -1.5.

For C53A C70A, the “polymerase ribozyme fitness (log ratio)” value is -1.81.
